Source: patent US20230159643A1 (H LUNDBECK A S, published 2023)
Values belong to the binder of their own block, whether it stands above or below them.

Tests used:
[1] = target: T1, Sortilin hSORTECDBAP (human, UniProt Q99523 78-755, biotinylated on the BAP tag by co-expression of biotin ligase); assay: BLI Octet 384RED (Example 8), Sortilin construct in solution
T1 construct: Soluble extracellular region (ECD, aa 1-755) with BAP tag
T1 sequence: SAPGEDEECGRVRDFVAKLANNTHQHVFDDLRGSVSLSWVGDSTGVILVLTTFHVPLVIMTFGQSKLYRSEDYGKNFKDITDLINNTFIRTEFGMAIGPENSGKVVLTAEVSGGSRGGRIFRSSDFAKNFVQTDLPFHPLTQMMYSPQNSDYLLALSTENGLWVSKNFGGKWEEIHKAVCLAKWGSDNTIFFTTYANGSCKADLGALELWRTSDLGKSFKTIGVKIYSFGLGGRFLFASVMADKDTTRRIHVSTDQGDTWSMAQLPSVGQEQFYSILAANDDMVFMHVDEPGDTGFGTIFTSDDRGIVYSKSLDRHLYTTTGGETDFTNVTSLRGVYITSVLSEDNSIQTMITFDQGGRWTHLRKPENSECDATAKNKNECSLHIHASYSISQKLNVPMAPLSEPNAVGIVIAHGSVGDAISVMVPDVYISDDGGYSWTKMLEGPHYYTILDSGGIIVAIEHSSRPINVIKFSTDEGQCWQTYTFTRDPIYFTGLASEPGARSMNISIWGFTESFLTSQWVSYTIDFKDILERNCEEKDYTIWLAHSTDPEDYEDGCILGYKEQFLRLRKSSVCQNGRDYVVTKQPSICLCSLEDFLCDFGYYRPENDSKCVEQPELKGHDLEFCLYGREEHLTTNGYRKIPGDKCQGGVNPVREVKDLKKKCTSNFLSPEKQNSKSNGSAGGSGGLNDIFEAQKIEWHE
Description: (§1) Binding kinetics of anti-Sortilin HuMab antibodies to Sortilin were determined using Octet 384RED (Fortebio, Menlo Park, USA). HuMab solutions of 2 μg/ml were made by dilution in sample diluent (ForteBio, art. No. 18-5028). Prot A sensors (ForteBio, art. no. 18-0004) were prewetted with kinetics buffer (1:10 sample diluent in PBS) for at least 600 seconds. Subsequently sensors were immobilized with HuMab solution for 600 seconds. A baseline response was obtained by dipping in kinetics buffer for 120 seconds. Association of SORTECD constructs was performed during a 1000 seconds incubation. This was followed by dissociation in kinetics buffer for 100 seconds. After dissociation, sensors were regenerated (10 mM Glycine pH 1.0) and neutralized (kinetics buffer) 3 times for 5 seconds. […] A molecular weight of 76.8 kDA was used for SORTECDHis. Data was fitted with ForteBio Analysis 6.4 software, using a global full fit.

[2] = target: T2, Sortilin SORTECDBAP_hB01-05 (human/tetraodon chimera); assay: BLI Octet 384RED, antibody on Protein A sensor, Sortilin construct in solution
T2 construct: Shuffle construct
T2 chain: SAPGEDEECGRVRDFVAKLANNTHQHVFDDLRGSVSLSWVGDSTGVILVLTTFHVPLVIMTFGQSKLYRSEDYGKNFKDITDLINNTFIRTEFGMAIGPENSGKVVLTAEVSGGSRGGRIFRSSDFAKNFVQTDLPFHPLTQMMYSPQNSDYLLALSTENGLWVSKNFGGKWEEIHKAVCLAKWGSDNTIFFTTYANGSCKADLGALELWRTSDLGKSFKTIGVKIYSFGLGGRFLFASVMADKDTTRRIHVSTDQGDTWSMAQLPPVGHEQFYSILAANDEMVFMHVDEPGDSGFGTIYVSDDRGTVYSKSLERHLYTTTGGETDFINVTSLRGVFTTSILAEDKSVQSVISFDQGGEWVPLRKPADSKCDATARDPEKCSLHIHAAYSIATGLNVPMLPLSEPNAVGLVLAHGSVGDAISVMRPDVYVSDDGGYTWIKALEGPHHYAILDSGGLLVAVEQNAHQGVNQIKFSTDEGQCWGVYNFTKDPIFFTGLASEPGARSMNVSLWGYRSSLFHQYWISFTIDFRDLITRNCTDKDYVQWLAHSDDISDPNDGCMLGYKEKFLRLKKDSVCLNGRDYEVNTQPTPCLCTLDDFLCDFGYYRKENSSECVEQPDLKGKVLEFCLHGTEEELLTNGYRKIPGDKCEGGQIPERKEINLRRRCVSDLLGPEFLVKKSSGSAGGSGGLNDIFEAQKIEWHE
Description: as §1

[3] = target: T3, Sortilin SORTECD_HIS (human, UniProt Q99523 78-755); assay: HTRF: displacement of PGRN binding to His-tagged Sortilin ECD
T3 construct: also called Sortilin-ECD-His; HIS-tagged Sortilin ECD
T3 sequence: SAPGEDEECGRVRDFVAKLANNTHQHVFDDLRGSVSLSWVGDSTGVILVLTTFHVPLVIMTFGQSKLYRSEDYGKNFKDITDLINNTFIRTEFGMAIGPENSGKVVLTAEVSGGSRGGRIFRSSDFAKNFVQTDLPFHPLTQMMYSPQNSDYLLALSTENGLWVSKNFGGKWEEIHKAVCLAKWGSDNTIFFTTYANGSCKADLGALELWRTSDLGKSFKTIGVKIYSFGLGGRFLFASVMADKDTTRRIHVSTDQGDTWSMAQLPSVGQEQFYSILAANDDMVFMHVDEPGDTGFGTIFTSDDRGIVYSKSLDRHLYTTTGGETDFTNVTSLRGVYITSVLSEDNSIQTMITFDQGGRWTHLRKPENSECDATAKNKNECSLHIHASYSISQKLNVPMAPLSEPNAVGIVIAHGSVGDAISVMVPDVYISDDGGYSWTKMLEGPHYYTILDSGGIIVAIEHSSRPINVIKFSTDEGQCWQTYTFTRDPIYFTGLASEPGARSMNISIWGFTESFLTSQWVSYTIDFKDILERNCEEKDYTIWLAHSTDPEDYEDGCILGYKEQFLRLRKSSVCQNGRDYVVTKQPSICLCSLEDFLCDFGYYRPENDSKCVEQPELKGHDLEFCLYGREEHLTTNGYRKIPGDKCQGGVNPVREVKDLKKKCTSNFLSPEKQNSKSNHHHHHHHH
Description: Dose-response evaluation of antibodies was performed with ten concentrations covering 50 pM to 1 μM in a 3-fold dilution curve. The half-maximal inhibitory concentration (IC50) values were calculated by non-linear regression using sigmoidal concentration response (variable slope) in XLfit 4 (IDBS, UK).
Experiments were performed in assay buffer (50 mM Phosphate, pH 7.0, 0.1% BSA) in a total volume of 20 μl in a Greiner 384 well, white, low volume microtiter plate, (784075, Greiner).

- EC50 [1]: 1.56 ng/mL
B1: Antibody 1F2 (antibody, V domains shown)
VH: EVQLVESGGDLVKPGGSLKLSCAASGFTFSSYGMSWVRQTPDKRLEWVAIISSGGSYTHYPDSVKGRFTISRDNAKNTLYLQMSSLKSEDTAMYYCARLCGPLCSGYWGQGTSVTVSS
VL: QAVVTQESALTTSPGETVTLTCRSSTGAVTTSNYANWVQEKPDHLFTGLIGGTNNRAPGVPARFSGSLIGDKAALTITGAQTEDEAIYFCALWYSNHFWVFGGGTKLTVLG
notes: Mouse anti-human Sortilin monoclonal antibody from hybridoma (BALB/c), purified on protein G; Assigned to the D Region; also called 1F2F4; Ab 1F2

- binding result [2]: no binding (tested: 10 µg/ml construct)
- IC50 [3]: 32 nM
B2: 1320 (antibody, V domains shown)
VH: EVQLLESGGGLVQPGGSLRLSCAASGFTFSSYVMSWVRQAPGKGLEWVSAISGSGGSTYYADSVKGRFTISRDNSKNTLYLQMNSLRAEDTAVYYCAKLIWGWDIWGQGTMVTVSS
VL: EIVLTQSPATLSLSPGERATLSCRASQSVSSYLAWYQQRPGQAPRLLIYDASNRATGIPARFSGSGSGTDFTLSISSLEPEDFAVYYCQQRTNWSITFGQGTRLEIK
notes: also called IgG1-6003-1320; Antibody 1320

- EC50 [1]: 1.14 ng/mL
B3: Antibody 5E1 (antibody, V domains shown)
VH: EVHLVESGGDLVNPGGSLKLSCEASGFIFSIYGMSWVRQTPDKRLEWVAMISSGGIYTQYPDSVKGRFTISRDNAKNTLYLQMSGLKSEDTGTYHCTRHDDSWFAYWGQGTLVTVSA
VL: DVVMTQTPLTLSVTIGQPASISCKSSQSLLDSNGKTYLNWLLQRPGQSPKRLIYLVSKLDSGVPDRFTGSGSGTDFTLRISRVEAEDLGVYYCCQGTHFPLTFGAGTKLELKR
notes: Mouse anti-human Sortilin monoclonal antibody from hybridoma (BALB/c), purified on protein G; Assigned to the D Region; also called 5E1F6; Ab 5E1
